Reference: patent US8026342B2, “Compositions and methods for binding sphingosine-1-phosphate” (Lpath, Inc., priority 2006, dated 2011)

Tests used:
[1] = LT1009 formulation stability study (visual inspection, syringeability, SE-HPLC); assay type: physicochemical; details: independent of antibody concentration
Method: Preferred formulations should not only stabilize the antibody, but also be tolerated by patients when injected. […] Additionally, three different storage temperatures (5° C., 25° C., and 40° C.) were also examined (representing actual, accelerated, and temperature stress conditions, respectively). Stability was assessed using representative samples taken from the various formulations at five different time points: at study initiation and after two weeks, 1 month, 2 months, and 3 months. At each time point, testing involved visual inspection, syringeability (by pulling through a 30-gauge needle), and size exclusion high performance liquid chromatography (SE-HPLC). Circular dichroism (CD) spectroscopy was also used to assess protein stability since above a certain temperature, proteins undergo denaturation, followed by some degree of aggregate formation. The observed transition is referred to as an apparent denaturation or “melting” temperature (Tm) and indicate the relative stability of a protein. […]
For a given time point, aliquots from each sample were subjected to a series of standard analyses, including visual inspection, syringeability, pH, SDS-PAGE (under both reducing and non-reducing conditions), SE-HPLC, and IEF. Protein concentrations were determined by UV spectroscopy (OD-280). […]

HT29 tumor = experiment: SC HT29 colorectal tumor xenograft; assay type: in vivo, athymic NCr-nu/nu mice; details: LT1009 50 mg/kg ip q2d; Avastin 20 mg/kg iv q4d; 5-FU 75 mg/kg ip q4d
Method: Nude mice were implanted sc near the right flank with one fragment per mouse of HT29 tumor from an in vivo passage. All treatments were initiated the day when 60 mice in each experiment established tumors ranging in size from approximately 100 to 200 mm^3. There were ten mice per treatment group. […] 75 mg/kg 5-FU and 20 mg/kg Avastin were administered ip and iv at a dosage of 75 mg/kg/dose and 20 mg/kg/dose, respectively, q4d, injected in a volume of 0.1 mL/10 g body weight.
Animals were observed daily for mortality. Tumor dimensions and body weights were collected twice weekly starting with the first day of treatment and including the day of study termination. When the median tumor in the vehicle-treated control group in each study reached approximately 4,000 mg, the study was terminated. Tumors from each animal were harvested, wet weights were recorded, and tumors were processed for determination of MVD by CD-31 staining. Tumor weights (mg) were calculated using the equation for an ellipsoid sphere (l×w^2)/2=mm^3, where l and w refer to the larger and smaller dimensions collected at each measurement and assuming unit density (1 mm^3=1 mg).

[2] = BIAcore binding of murine anti-S1P mAb to S1P immobilized on chip; details: read-out: affinity (Kd) for S1P
Method: Binding kinetics: The binding kinetics of S1P to its receptor or other moieties has, traditionally, been problematic because of the nature of lipids. Many problems have been associated with the insolubility of lipids. For BIAcore measurements, these problems were overcome by directly immobilizing S1P to a BIAcore chip. Antibody was then flowed over the surface of the chip and alterations in […] were measured to determine the binding characteristics of the antibody to S1P. To circumvent the bivalent binding nature of antibodies, S1P was coated on the chip at low densities. Additionally, the chip was coated with various densities of S1P (7, 20, and 1000 RU) and antibody binding data was globally fit to a 1:1 interaction model.

[3] = test system: ovarian cancer (OVCAR3) cells; experiment: S1P-induced IL-8 release from ovarian cancer cells; assay type: cell-based, human; details: 1 uM S1P
Method: After 22 hours of incubation, cell supernatants were collected and IL-8 secretion was measured by ELISA using an R&D Systems Quantikine human CXCL8/IL-8 kit.
In parallel, all the variants were tested for their effects on S1P-induced cytokine release from cancer cells.

[4] = Surface plasmon resonance (Biacore 2000) binding to S1P-coated chip; details: read-out: Binding Affinity (KD1)
Method: Each concentration was tested in duplicate. […] All data were collected at 25° C.

[5] = test system: Matrigel plug neovascularization; experiment: In vivo Matrigel plug assay for neovascularization (S1P, VEGF, bFGF); set-up: species or system mice
Method: Based on in vivo studies showing that S1P increased endothelial capillary growth into subcutaneously implanted Matrigel plugs, we speculated that SPHINGOMAB could reduce de novo BV formation in vivo. To investigate this, we employed the in vivo Matrigel Plug assay for neovascularization. In one set of experiments, Matrigel was supplemented with either 1 μM S1P, 0.5 μg/mL bFGF or 1 μg/mL VEGF and then […]. into mice (n=4). After 10 days, the mice were heparinized and injected with the fluorescent lectin, Isolectin B4-FITC, which binds to adhesion molecules expressed by vascular EC that form the growing BVs. The plugs were then excised, frozen in OCT, sectioned and viewed for FITC-stained BVs.
Sections of the plugs were then stained with hemotoxyln & eosin for evaluation of EC infiltration (FIG. 6B). The infiltration of ECs is a critical step in neo-vascularization. […] Cell infiltration is presumed to be ECs although we recognize that other cell types such as immune cells may also be stained.
Endogenous S1P from the blood and surrounding tissue could supply a wound with pro-angiogenic stimuli. The ability of SPHINGOMAB to reduce endogenous S1P in a wound was investigated. Optimally stimulated plugs (Matrigel supplemented with 0.5 μg/mL bFGF or […] VEGF) were implanted into mice. Mice received i.p. injections of 25 mg/kg SPHINGOMAB or saline every 48 hrs starting 1 day prior to Matrigel implantation. Each treatment group (Matrigel, Matrigel plus GF or Matrigel plus GF and administered SPHINGOMAB) consisted of a minimum of 6 mice. After 10 days, the mice were treated with heparin, injected with Isolectin B4-FITC, the plugs excised, embedded in OCT freezing medium and sectioned.

[6] = 25 mg/kg i.p. every 48 hrs, 10 days

| Molecule | conditions of greatest stability (SE-HPLC) [1] | % Reduction compared to Vehicle-Treated Mice (HT29 tumor) [%] | Final Tumor Weights (HT29 tumor) [mg] | Kd [2] [nM] | reduction of S1P-induced IL-8 release [3] | Kd [4] [nM] | decrease in neovascularization of VEGF-containing plugs vs saline-treated animals [5, 6] [fold] | decrease in neovascularization of bFGF-containing plugs vs saline-treated animals [5, 6] [fold] | EC infiltration into S1P-containing Matrigel plugs ([5]; systemic, every 48 hrs) |
| --- | --- | --- | --- | --- | --- | --- | --- | --- | --- |
| LT1009: humanized anti-S1P IgG1/kappa mAb with Cys to Ala in HCDR2, light chain with 5 backmutations; SEQ ID NO: 31/32 | most stable around pH 6 and 450 mM NaCl | 13 | 2390.63 |  |  |  |  |  |  |
| LT1002: murine anti-S1P monoclonal antibody, IgG1 kappa, from hybridoma clone 306D326.26 (antibody, listed as Mus sp., V domains shown) VH: QAHLQQSDAELVKPGASVKISCKVSGFIFIDHTIHWMKQRPEQGLEWIGCISPRHDITKYNEMFRGKATLTADKSSTTAYIQVNSLTFEDSAVYFCARGGFYGSTIWFDFWGQGTTLTVS VL: ETTVTQSPASLSMAIGEKVTIRCITTTDIDDDMNWFQQKPGEPPNLLISEGNILRPGVPSRFSSSGYGTDFLFTIENMLSEDVADYYCLQSDNLPFTFGSGTKLEIK |  |  |  | < 0.1 | reduced IL-8 release | 0.026 | 5 | 8.5 | reduced amount of EC infiltration |
